Test results as given in US20250277030A1, “ANTI-NAPI2B ANTIBODIES AND METHODS OF USE” (Zymeworks BC Inc., priority 2022, published 2025).

How the values were obtained:
mouse NaPi2b = target: T1, mouse NaPi2b (Mus musculus, UniProt Q9DBP0); experiment: Flow cytometry binding to HEK293-6e cells transfected with mouse NaPi2b (Example 5); conditions: transfected HEK293-6e cells
T1 construct: expressed in transfected cells; host or cells: HEK293-6e
T1 sequence (Q9DBP0 1-697): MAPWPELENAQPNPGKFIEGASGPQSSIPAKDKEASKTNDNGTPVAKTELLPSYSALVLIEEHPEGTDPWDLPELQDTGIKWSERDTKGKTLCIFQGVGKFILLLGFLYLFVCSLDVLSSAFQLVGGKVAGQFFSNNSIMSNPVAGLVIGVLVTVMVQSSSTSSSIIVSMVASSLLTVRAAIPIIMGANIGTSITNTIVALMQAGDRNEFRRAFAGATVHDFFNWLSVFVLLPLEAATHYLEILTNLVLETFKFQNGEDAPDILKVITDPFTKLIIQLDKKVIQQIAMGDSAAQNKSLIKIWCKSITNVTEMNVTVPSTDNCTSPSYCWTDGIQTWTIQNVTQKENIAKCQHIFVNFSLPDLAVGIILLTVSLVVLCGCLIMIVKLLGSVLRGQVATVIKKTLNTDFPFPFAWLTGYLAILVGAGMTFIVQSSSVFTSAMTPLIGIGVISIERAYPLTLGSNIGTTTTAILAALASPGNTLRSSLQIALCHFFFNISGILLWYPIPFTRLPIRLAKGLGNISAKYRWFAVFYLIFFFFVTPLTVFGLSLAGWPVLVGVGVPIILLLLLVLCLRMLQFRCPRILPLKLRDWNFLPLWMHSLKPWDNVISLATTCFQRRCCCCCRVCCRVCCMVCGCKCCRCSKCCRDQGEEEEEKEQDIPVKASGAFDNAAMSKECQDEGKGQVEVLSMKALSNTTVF
Description: (§1) The binding cross-reactivity of humanized antibody variant v29456 to human, cynomolgus and mouse NaPi2b was assessed by flow cytometry using HEK293-6e transfected cells.
(§2) Briefly, HEK293-6e cells were transfected for ˜24 hours to transiently express human NaPi2b, cynomolgus or mouse NaPi2b, at 1 μg of DNA per 1 million cells. Following transfection, 50,000 cells per well were seeded in V-bottom 96-well plates and incubated with 200 nM of primary antibody for 18-24 hours at 4° C. to prevent internalization. Post-incubation, cells were washed and stained with anti-Human IgG Fc AF647 conjugate (Jackson Immuno Research Labs, West Grove, PA, Cat. No. 109-605-098, Lot. No. 124868) at 4° C. for 1 hour. Following staining and washing, fluorescence was detected by flow cytometry on BD LSRFortessa™ Cell Analyzer (BD Biosciences, Franklin Lake, NJ) with 10,000 minimum events collected per well. The AF647/APC-A GeoMean (fluorescence signal geometric mean, proportional to anti-Human AF647 binding) was calculated for the live singlet cell population for each primary antibody using FlowJo™ v8 software (BD Biosciences, Franklin Lake, NJ). The Bmax and Kd of each primary antibody were calculated using GraphPad Prism Version 9 (GraphPad Software, San Diego, CA)

[1] = target: T2, NaPi2b expressed on HCC-78 cells (Homo sapiens, UniProt O95436); experiment: Cellular binding of antibody and ADCs to HCC-78 cells by flow cytometry (Example 14)
T2 construct: endogenous in cells; host or cells: HCC-78
T2 sequence (O95436 1-690): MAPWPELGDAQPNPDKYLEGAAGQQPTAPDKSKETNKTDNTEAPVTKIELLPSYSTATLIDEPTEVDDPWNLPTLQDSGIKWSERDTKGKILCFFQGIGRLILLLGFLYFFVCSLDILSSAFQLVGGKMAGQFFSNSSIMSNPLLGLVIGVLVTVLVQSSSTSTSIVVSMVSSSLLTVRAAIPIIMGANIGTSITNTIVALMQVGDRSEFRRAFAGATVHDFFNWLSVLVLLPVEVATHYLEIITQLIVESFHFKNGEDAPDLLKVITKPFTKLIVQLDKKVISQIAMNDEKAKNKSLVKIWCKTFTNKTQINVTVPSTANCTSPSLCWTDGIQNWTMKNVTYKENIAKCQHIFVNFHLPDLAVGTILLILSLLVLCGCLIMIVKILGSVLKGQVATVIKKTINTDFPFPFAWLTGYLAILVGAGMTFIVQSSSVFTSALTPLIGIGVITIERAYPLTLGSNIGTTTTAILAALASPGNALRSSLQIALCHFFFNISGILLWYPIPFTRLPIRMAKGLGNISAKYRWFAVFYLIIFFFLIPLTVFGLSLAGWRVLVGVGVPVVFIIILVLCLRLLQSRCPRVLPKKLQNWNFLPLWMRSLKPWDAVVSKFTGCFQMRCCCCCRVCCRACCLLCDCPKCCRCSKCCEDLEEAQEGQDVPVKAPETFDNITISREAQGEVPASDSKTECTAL
Description: as §2
(§3) The ability of ADCs to bind to cells expressing NaPi2b was assessed. […] Binding to endogenous high NaPi2b-expressing cell lines IGROV-1 and HCC-78 was assessed by flow cytometry according to methods described in Example 5.

[2] = target: T3, NaPi2b expressed on IGROV-1 cells (Homo sapiens, UniProt O95436); experiment: Cellular binding of antibody and ADCs to IGROV-1 cells by flow cytometry (Example 14)
T3 construct: IGROV-1 cells express endogenous NaPi2b at a high level; endogenous in cells; host or cells: IGROV-1
T3 sequence (O95436 1-690): T2 sequence (O95436 1-690)
Description: as §2, §3

cynomolgus NaPi2b = experiment: Flow cytometry binding to HEK293-6e cells transfected with cynomolgus NaPi2b (Example 5); conditions: transfected HEK293-6e cells
cynomolgus NaPi2b, sequence (as listed by the source): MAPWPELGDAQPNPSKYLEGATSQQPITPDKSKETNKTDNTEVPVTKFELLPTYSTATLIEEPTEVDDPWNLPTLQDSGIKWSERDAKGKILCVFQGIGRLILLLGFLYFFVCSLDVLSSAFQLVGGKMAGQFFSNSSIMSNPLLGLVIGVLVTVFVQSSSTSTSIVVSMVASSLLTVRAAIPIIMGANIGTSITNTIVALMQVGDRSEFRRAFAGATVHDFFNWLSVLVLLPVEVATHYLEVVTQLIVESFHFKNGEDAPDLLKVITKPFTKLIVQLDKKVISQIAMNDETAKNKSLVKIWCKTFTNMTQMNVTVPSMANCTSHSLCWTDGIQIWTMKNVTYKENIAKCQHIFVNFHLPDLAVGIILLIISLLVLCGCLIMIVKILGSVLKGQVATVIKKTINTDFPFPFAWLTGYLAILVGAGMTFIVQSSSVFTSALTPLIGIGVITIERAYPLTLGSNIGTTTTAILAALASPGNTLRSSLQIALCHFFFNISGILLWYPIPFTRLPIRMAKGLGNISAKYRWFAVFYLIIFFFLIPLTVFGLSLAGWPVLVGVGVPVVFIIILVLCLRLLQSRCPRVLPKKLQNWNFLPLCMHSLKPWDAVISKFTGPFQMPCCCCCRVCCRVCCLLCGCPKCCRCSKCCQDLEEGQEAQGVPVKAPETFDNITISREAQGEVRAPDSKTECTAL
Description: as §1, §2

v22277: anti-RSV antibody palivizumab, negative control; has a heterodimeric Fc [reference compound]
did not bind: Binding to mouse NaPi2b, in words (mouse NaPi2b) | Binding to HCC-78 cells, in words [1] | Binding to IGROV-1 cells, in words [2] | Binding to cynomolgus NaPi2b, in words (cynomolgus NaPi2b)
